We go through five molecules from paper PMC7089606 (Journal of Molecular Biology, 2010).

A word on the Ki: it is a measure of affinity in units of concentration, obtained from inhibition or displacement. Low readings indicate tighter binding, high ones weaker binding. The term Km denotes the concentration of substrate that gives half-maximal velocity. For orientation: kcat means the maximal rate divided by the concentration of active sites. Usually kcat/Km stands for the turnover number divided by the Michaelis constant.

Series [1] concerns the target T1, DmCPD1Bs (D. melanogaster carboxypeptidase D variant 1B short) (Drosophila melanogaster, UniProt P42787).
T1 sequence (P42787 26-435 isoform P42787-7): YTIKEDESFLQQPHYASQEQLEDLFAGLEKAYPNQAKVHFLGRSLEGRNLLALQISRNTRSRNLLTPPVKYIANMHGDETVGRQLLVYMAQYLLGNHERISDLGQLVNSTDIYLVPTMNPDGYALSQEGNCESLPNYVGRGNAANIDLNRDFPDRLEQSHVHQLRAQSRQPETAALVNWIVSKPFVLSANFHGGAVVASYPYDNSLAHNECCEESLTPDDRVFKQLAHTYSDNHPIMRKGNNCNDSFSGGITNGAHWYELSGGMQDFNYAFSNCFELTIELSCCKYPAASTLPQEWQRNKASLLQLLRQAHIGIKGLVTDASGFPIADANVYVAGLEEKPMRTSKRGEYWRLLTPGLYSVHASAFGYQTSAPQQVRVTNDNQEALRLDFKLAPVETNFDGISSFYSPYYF
In words: crystal structure at […] Å. The series is classed as biochemical.

Series [2] is described as follows: recombinant expression yield in P. pastoris. Particulars: glycan lost; control: wild type.
Substrate in the series “purified protein”: N=C(N)NCCC[C@H](NC(=O)CNC(=O)c1ccccc1)C(=O)O
In words: purified protein. Particulars: Zn2+.

As to `N=C(N)NCCSC(CC(=O)O)C(=O)O` (stereo not drawn) [GEMSA, 2-guanidinoethyl-mercaptosuccinic acid], affinity in series [1] was put at a Ki of 0.67 ± 0.08 µM.

As for “DmCPD1Bs (carboxypeptidase D variant 1B short, svr-PF): N133Q”, the expression_or_secretion result in series [2] is “decreases”.

As for “DmCPD1Bs (carboxypeptidase D variant 1B short, svr-PF): N269Q”, the expression_or_secretion entry in series [2] was “decreases”.

B1: DmCPD1Bs (D. melanogaster carboxypeptidase D variant 1B short) (Drosophila melanogaster) (protein)
chain: T1 sequence (P42787 26-435 isoform P42787-7)
Take B1: in the series “purified protein”, the Km is 1112 ± 167 µM, the turnover number (kcat) worked out at 38.8 ± 4.1 s⁻¹ and the kcat/Km is 34900 M⁻¹ s⁻¹.

B2: human CPB (hCPB) (Homo sapiens) (protein)
chain: ATGHSYEKYNKWETIEAWTQQVATENPALISRSVIGTTFEGRAIYLLKVGKAGQNKPAIFMDCGFHAREWISPAFCQWFVREAVRTYGREIQVTELLDKLDFYVLPVLNIDGYIYTWTKSRFWRKTRSTHTGSSCIGTDPNRNFDAGWCEIGASRNPCDETYCGPAAESEKETKALADFIRNKLSSIKAYLTIHSYSQMMIYPYSYAYKLGENNAELNALAKATVKELASLHGTKYTYGPGATTIYPAAGGSDDWAYDQGIRYSFTFELRDTGRYGFLLPESQIRATCEETFLAIKYVASYVLEHLY
As for B2, in the series “purified protein”, the Michaelis-Menten constant (Km) turned out to be 485.3 ± 62.5 µM, the kcat was found to be 254 ± 11.9 s⁻¹ and the kcat/Km is 523000 M⁻¹ s⁻¹.
